Values of other authors in patent US10076577B2, “Compositions and methods for treating endocrine, gastrointestinal or autoimmune disorders” (priority 2010, dated 2018).

Settings: in vivo

## Glucagon-like peptide-1 [GLP-1]
  half-life in the blood: a few minutes
